Results as given in publication PMC9404054, “Efficient screening for 8-oxoguanine DNA glycosylase binding aptamers via capillary electrophoresis”.

Columns and labels:
[1] = biological target: T1, 8-oxoguanine DNA glycosylase (OGG1) (UniProt O15527 1-345); assay: capillary electrophoresis (NECEEM); 0.2 uM aptamer, 5.0 uM OGG1, n=3; CE in fused-silica capillary (75 um i.d. x 50.2 cm, 40 cm effective); borate reagents listed; 15 min incubation stated for the selection; buffer composition, pH and temperature not in the material; details: protein: commercial; (library is FAM labelled)
T1 sequence (O15527 whole entry, the tested form may be a part): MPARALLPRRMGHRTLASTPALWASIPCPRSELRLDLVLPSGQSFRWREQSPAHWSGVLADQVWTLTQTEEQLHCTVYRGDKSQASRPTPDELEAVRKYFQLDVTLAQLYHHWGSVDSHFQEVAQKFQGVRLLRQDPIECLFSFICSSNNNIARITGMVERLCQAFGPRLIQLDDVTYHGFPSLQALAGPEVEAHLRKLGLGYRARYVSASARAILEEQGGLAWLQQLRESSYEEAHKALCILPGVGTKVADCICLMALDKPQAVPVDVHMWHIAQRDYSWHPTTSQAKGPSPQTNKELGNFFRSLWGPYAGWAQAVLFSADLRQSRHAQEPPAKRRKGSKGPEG

[2] = biological target: T1, 8-oxoguanine DNA glycosylase (OGG1); assay: capillary electrophoresis (NECEEM); 0.2 uM aptamer, 5.0 uM OGG1, n=3; abstract gives range 1.71-2.64 uM for the top three candidates; CE in fused-silica capillary (75 um i.d. x 50.2 cm, 40 cm effective); borate reagents listed; 15 min incubation stated for the selection; buffer composition, pH and temperature not in the material; details: protein: commercial; (library is FAM labelled)

B1: OGG1-Apt 1 (ssDNA)
DNA: AGCAGCACAGAGGTCAGATGGCCACATTAGTCTCACCACTACCTGCGTACCTACCGCCGCCCTATGCGTGCTACCGTGAA
B1 showed a Kd [1] of 1700 ± 100 nM.

B2: OGG1-Apt 2 (ssDNA)
DNA: AGCAGCACAGAGGTCAGATGTTGATGGCAGGTATTGCTAGGTCTACATGGAACTTGTTAACCTATGCGTGCTACCGTGAA
B2 showed a Kd [1] of 2600 ± 200 nM.

B3: OGG1-Apt 4 (ssDNA)
DNA: AGCAGCACAGAGGTCAGATGGCGAAGCGTACCGGCTACCCAGTGACAGTCGCCGTGGGTCCCTATGCGTGCTACCGTGAA
Work on B3 yielded a Kd [2] of 2800 ± 200 nM.

B4: OGG1-Apt 6 (ssDNA)
DNA: AGCAGCACAGAGGTCAGATGCCGATCGTTGTTCCCGATCAAGATGGGGAATCTCAGTCGCCCTATGCGTGCTACCGTGAA
B4 was tested, and the Kd [1] was 1800 ± 100 nM.
